Data reported in patent US20180203016A1 (UCB, published 2018).

How the values were obtained:
[1] = biological target: TNFα (fused trimer) - AVI Tag, biotinylated, in the presence of compound (4); assay: TR-FRET, 7.5 nM proteins, compound (4) up to 25 µM; partial loss of receptor binding
[2] = biological target: TNFα (fused trimer) - AVI Tag, biotinylated, in the presence of compound (3); assay: TR-FRET, 7.5 nM proteins, compound (3) up to 25 µM; partial loss of receptor binding
[3] = biological target: T1, fused human TNFα trimer in complex with compound (5) (human, UniProt P01375 77-233; P01375 86-233; P01375 86-233, limits assumed); assay: analytical SEC (Superdex 200HR 10/300), Abs 280 nm against retention (CV); 3.5 fold excess of TNFR1 over trimer preincubated with 200 µM compound (5)
T1 construct: also called trimer-compound complex
T1 sequence (P01375 other isoform, or with tags, fused parts or gaps limits assumed): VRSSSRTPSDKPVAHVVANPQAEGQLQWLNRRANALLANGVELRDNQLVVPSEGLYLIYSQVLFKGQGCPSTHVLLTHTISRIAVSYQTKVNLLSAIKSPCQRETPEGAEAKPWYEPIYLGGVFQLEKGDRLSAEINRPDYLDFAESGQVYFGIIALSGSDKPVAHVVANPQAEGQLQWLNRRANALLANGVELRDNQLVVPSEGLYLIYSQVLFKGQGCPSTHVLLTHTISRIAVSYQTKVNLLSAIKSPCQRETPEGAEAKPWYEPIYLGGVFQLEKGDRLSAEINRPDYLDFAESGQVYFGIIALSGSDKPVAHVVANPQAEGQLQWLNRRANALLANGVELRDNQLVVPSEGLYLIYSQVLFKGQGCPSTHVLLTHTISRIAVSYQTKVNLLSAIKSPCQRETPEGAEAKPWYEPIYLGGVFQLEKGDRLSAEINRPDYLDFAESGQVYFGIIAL
Experimental: The final concentration of DMSO was 1.0%. The mixture was incubated for 1 hour at 22° C.

[4] = biological target: T2, fused human TNFα trimer in complex with compound (2) (human, UniProt P01375 77-233; P01375 86-233; P01375 86-233, limits assumed); assay: analytical SEC (HPLC, TSK G3000SW), Abs 280 nm against retention time; 3.2 fold excess of TNFR1 over fused TNFα trimer preincubated with 90, 240, 465 or 690 µM compound (2) [D00007 Fig. 5(Cont.]
T2 construct: also called trimer-compound complex; compound-trimer complex
T2 sequence (P01375 other isoform, or with tags, fused parts or gaps limits assumed): as above
Experimental: The final concentration of DMSO was 0.25%. The mixture was incubated for 1 hour at 22° C.

[5] = biological target: T3, soluble form of mouse TNFα (VC 6535) in complex with compound (1) (mouse, UniProt P06804 89-235); assay: X-ray crystallography, 3.15 Å
T3 construct: also called murine TNFα; trimer-compound complex
T3 sequence: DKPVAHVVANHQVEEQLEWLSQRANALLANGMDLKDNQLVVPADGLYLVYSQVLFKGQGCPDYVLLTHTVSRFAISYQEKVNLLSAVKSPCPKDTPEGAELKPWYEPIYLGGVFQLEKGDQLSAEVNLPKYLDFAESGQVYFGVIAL
Experimental: The final purified ternary complex was concentrated to 18.5 mg/ml and immediately used in crystallization trials.
The ternary complex was crystallized by sitting drop vapor diffusion by mixing 0.5 μl of complex with 0.5 μl of 800 mM sodium potassium tartrate, 0.5% PEG5000 MME, 100 mM Tris pH 8.5 over 100 μl of the same crystallization solution. Crystals were harvested for data collection approximately 2 months after initial set up. They were briefly soaked in paraffin oil and frozen directly in liquid nitrogen for data collection on Aug. 17, 2012 at Argonne Photon Source, beamline 21-IDF.

## TNFR1(ECD)-6xLysine-Human single chain Fc, Alexa Fluor 488 conjugated (from UniProt P19438 30-211) (Fc fusion)
[1]
  maximal inhibition of FRET signal: 36%
[2]
  maximal inhibition of FRET signal: 29%

B1: Human TNFR1 (V43-N184)(N54D, C182S) (receptor, UniProt P19438 43-184, looked up)
chain: VCPQGKYIHPQDNSICCTKCHKGTYLYNDCPGPGQDTDCRECESGSFTASENHLRHCLSCSKCRKEMGQVEISSCTVDRDTVCGCRKNQYRHYWSENLFQCFNCSLCLNGTVHLSCQEKQNTVCTCHAGFFLRENECVSSSN
notes: also called receptor
[3]
  binding result: binds
[4]
  binding result: binds

B2: extracellular domain of human TNFR1 (VC 5602) (receptor)
chain: GSVCPQGKYIHPQDNSICCTKCHKGTYLYNDCPGPGQDTDCRECESGSFTASENHLRHCLSCSKCRKEMGQVEISSCTVDRDTVCGCRKNQYRHYWSENLFQCFNCSLCLNGTVHLSCQEKQNTVCTCHAGFFLRENECVSSSN
notes: Expressed in baculovirus infected insect cells
[5]
  binding result: binds
